Measurements taken from PMC6125598.

Target: STIM1-CFP (stromal interacting molecule 1) (UniProt Q13586)
Test: FRET or BRET; FRET between YFP-IP3R and STIM1-CFP in transfected cells, measured in TIRFM mode (less than 100 nm from the coverslip), after bradykinin stimulation (cells transfected with the human bradykinin type 2 receptor)

Chain of UniProt Q13586 (Q13586 23-685): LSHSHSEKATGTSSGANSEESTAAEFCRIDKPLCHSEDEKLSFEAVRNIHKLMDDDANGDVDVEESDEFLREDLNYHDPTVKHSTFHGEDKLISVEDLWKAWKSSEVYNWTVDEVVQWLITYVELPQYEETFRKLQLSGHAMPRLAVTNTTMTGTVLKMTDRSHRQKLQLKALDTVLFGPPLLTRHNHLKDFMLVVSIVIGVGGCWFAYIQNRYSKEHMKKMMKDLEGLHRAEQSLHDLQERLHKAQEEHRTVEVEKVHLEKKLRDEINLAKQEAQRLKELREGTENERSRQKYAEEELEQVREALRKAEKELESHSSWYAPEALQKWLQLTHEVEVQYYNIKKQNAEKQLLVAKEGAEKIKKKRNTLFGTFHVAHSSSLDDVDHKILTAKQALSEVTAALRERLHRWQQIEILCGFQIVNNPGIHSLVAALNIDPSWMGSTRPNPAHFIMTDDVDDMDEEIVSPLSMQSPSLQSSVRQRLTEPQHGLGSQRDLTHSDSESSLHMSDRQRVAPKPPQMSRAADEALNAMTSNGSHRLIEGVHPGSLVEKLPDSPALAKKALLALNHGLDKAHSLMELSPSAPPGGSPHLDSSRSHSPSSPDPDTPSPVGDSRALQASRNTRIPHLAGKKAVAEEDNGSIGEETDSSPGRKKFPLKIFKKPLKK

YFP-IP3R (inositol trisphosphate receptor type 1) (from UniProt Q14643-2 1-2743)
FRET efficiency: 24%
